Legend:
[1] = Flag-PD-L1 IP with HA-Ub, Western blot; settings: glycan gained; control: control-transfected HepG2 (vector / siNC), MG132
Western blot of PD-L1 = settings: glycan lost; control: untreated HepG2 cells

Substance	other: ubiquitination [1]	expression_or_secretion (Western blot of PD-L1)
PD-L1: GALNT16 overexpression	decreases	
PD-L1: tunicamycin (2 µg/mL, 18 h)		decreases

Source: PMC12658286
